Source: patent publication US20220259281A1 (SHATTUCK LABS, published 2022)

Legend:
[1] = target: T1, human PD-L1 (human, UniProt Q9NZQ7 19-290); assay: flow cytometry binding to CHOK1/hPDL1 cells; supernatant as % of total reaction volume
T1 construct: whole, on cells; also called hPD-L1; PD-L1 on CHO-K1/hPD-L1 cells
Protocol: (§1) In another experiment, the CHO-K1/hPD-L1 cells were incubated with increasing amounts of the neat culture supernatant of the Jurkat parental or Jurkat/hPD-1-Fc-OX40L cells produced as discussed in Example 2. Binding was detected using flow cytometry and the MFI was calculated and plotted as a function of the amount of the neat culture supernatant of Jurkat parental or Jurkat/hPD-1-Fc-OX40L cells. […] Further, the CHO-K1/hOX40 cells were incubated with increasing amounts of the neat culture supernatant of the Jurkat parental or Jurkat/hPD-1-Fc-OX40L cells produced as discussed in Example 2. Binding was detected using flow cytometry and the MFI was calculated and plotted as a function of the amount of the neat culture supernatant of Jurkat parental or Jurkat/hPD-1-Fc-OX40L cells.

[2] = target: anti-human PD-1 antibody; assay: MSD dual binding assay; Coat: anti-hPD1, Detect: anti-hOX40L; 3-fold dilution series drawn as bars
Protocol: Concentrated, de-salted culture supernatant was prepared as follows: 40 million Jurkat parental cells, Jurkat cells expressing human PD-1-Fc-4-1BBL chimeric protein (Jurkat/hPD-1-Fc-4-1BBL), Jurkat cells expressing human PD-1-Fc-OX40L chimeric protein (Jurkat/hPD-1-Fc-OX40L), or Jurkat cells expressing human CSF1R-Fc-CD40L chimeric protein (Jurkat/hCSF1R-Fc-CD40L) were cultured in 60 mL of media for 48 hours. After this, the media were harvested and concentrated 50-75× using AMICON-15 50K columns. Concentrated supernatant was desalted over a ZEBA desalting column or directly dialyzed in PBS and used in experiments. The resulting supernatant was also termed “neat” supernatant.
The PD-1-Fc-OX40L chimeric protein harbors the extracellular domain of PD-1 protein domain at or near the N-terminus and the extracellular domain of OX40 Ligand (OX40L) protein domain at or near the C-terminus. To understand whether the extracellular domains of PD-1 and OX40L can simultaneously bind to respective antibodies, an anti-human PD-1 antibody was coated on a plate. Three-fold serial dilutions neat culture supernatants of Jurkat parental cells or Jurkat/hPD-1-Fc-OX40L cells were added to the plate. […] The plate was incubated to allow capture of any protein by the plate-bound anti-human PD-1 antibody. […] Binding was detected using the MSD platform.

[3] = target: T2, universal-heterologous chimeric protein specific anti-Fc antibody; assay: sandwich ELISA: capture by anti-Fc antibody, detection by biotinylated anti-human OX40L antibody; concentrated culture media, the protein concentration in it is not given so the x values are nominal; the fitted value lies beyond the highest point shown (log about 2.8), nM is from the x axis
[4] = target: T2, universal-heterologous chimeric protein …; assay: sandwich ELISA: capture by anti-Fc antibody, detection by biotinylated anti-human OX40L antibody; Abs450nm against log[Agonist], nM, nM is from the x axis
[5] = target: T3, human OX40 (human, UniProt P43489 29-277); assay: flow cytometry binding to CHOK1/hOX40 cells; supernatant as % of total reaction volume
T3 construct: whole, on cells; also called hOX40; OX40 on CHO-K1/hOX40 cells
T3 sequence (looked up): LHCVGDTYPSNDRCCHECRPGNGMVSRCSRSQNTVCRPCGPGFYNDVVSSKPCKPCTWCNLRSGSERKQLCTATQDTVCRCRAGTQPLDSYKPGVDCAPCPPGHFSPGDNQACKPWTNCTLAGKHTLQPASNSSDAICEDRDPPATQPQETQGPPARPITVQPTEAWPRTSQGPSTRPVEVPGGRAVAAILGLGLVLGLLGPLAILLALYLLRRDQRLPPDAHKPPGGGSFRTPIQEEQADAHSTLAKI
Protocol: as §1

T1 sequence (Q9NZQ7 19-290): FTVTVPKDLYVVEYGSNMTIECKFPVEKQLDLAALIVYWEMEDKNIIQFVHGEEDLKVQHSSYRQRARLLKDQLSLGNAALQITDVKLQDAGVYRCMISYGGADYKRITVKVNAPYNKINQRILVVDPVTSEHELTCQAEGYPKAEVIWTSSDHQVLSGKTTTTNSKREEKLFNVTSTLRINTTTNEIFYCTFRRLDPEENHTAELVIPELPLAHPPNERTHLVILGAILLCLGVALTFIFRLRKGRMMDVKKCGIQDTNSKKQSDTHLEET

B1: human PD-1-Fc-OX40L heterologous chimeric protein (Fc fusion)
chain: LDSPDRPWNPPTFSPALLVVTEGDNATFTCSFSNTSESFVLNWYRMSPSNQTDKLAAFPEDRSQPGQDCRFRVTQLPNGRDFHMSVVRARRNDSGTYLCGAISLAPKAQIKESLRAELRVTERRAEVPTAHPSPSPRPAGQFQSKYGPPCPPCPAPEFLGGPSVFLFPPKPKDQLMISRTPEVTCVVVDVSQEDPEVQFNWYVDGVEVHNAKTKPREEQFNSTYRVVSVLTVLHQDWLSGKEYKCKVSSKGLPSSIEKTISNATGQPREPQVYTLPPSQEEMTKNQVSLTCLVKGFYPSDIAVEWESNGQPENNYKTTPPVLDSDGSFFLYSRLTVDKSRWQEGNVFSCSVLHEALHNHYTQKSLSLSLGKIEGRMDQVSHRYPRIQSIKVQFTEYKKEKGFILTSQKEDEIMKVQNNSVIINCDGFYLISLKGYFSQEVNISLHYQKDEEPLFQLKKVRSVNSLMVASLTYKDKVYLNVTTDNTSLDDFHVNGGELILIHQNPGEFCVL
notes: Tested as secreted protein in Jurkat supernatant and as purified protein; also called hPD-1-Fc-OX40L; hPD1-Fc-OX40L
Q: Does B1 bind [1]?
A: Result: binds

Q: And the “EC50 (read off the curve)” value [2]?
A: The value was roughly 0.08 µg/mL.

Q: And the EC50 [3]?
A: The EC50 was 2690 nM.

Q: And the EC50 [4]?
A: The EC50 was 37.3 nM.

Q: Does B1 bind [5]?
A: Result: binds
